Experiment: yeast display, Sf9 membrane polyspecificity reagent, FACS + sequencing; frameworks hold sequencing errors
Method in brief: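 Genes from sorted yeast were amplified by colony PCR, read by MiSeq 2 × 250 sequencing and filtered on CDR length. These cells carried a synthetic nanobody library in Saccharomyces cerevisiae BJ5465 and were sorted by FACS into low and high (top ~1%) gates on anti-HA and streptavidin fluorescence. Polyreactivity is labelled according to the gate of origin.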

Sequence	polyreactivity (PSR sort gate)
QLQLVDSGGGLVQAGGSLRLSCADSGRTYGAYTMGWYRKAPGKERELVAAINWSGGDTYYADSVKVRFTISRDNAKNTVYLQMNRLKPEDTAVYYCNAEPRYGTYDYWGQGTQVTVSS	low polyreactivity
QLQLVDSGGGVVQAGGSLRLSCAASGSTFSRYAMGWYRQAPGKEMELVAAISTRGGSTRYADSVKGRFTISRDNAKNTVYLQMYCRKPEDTAVYYGAALGQGRTSATSFVDYEYWGQGTQVTVSS	high polyreactivity
QLQLVDSGGGVVQAGGSLRLSCAASGSTYAQYVMGWYRPATGKEKELVAAISLSGGSTYYAASVKGRFTISRDNAKNTVYLQMNSLKPVDTAVYYCSARGYGPGLYSSRQNEYYYWGQGTQVTVSS	high polyreactivity
QLQLVDSGRGLVQAGGSLRLSSAASGSIFVTNGMGWYRQAPGKERELVAVISWGGGNTYYADSVKGRFTISRDNAKNTVYLQMNNLKPEDTAVYYCAVELYWDYYFTYDYWGQGTQVTVSS	low polyreactivity
QLQLVESAGGLVQAGGSLRLSCAASASTFGSYAMGWYRQATGKETELDASNTSAGSTNYADSVKGRFTISRDNAKNTVYLQMNSLKPVDTEVYYCNDVRYYSYQYVPEVTHRYGFWGQGTQVTVSS	high polyreactivity
QLQLVESAVGLDQAVDILRLSSAASGFIFPGNMGWYRKAPGKETELVAAISWSGGSTRYADSVKGRFTISRDNAKNTVYLQMNSLKPEDTAVYYCAASLSGKRFNKRYYWGQGTQVTVSS	high polyreactivity
QLQLVESGGALVQAGGSLRFSCAASARTYGKNAMGWYRQAPGKERELDAAITWSGSSTYYADSVKGRFTISRHNAKNTVYLQMNSLKAEDTAVYYCAKEDWQLDYTVTWRKMDSWGQVTQVTVSS	low polyreactivity
QLQLVESGGGLDQAGVSLRLSCAASGFIFRNYAIGSYRQAPGNESELVAAITRSGTSTYYADSVKGRFSISRDNAKNTVYLQMNSLKPEDTAVYYCNTRYWLYYHRFDYWGQGTQVTVSS	high polyreactivity
QLQLVESGGGLLQAGGSLRLSCAAPGSTFAPNTMGWNRQPPGKARELVARITSSDGSTSYADSVKGRFTISRDNAKNTVYLQMNSLKPEDTAVYYCAAQYSYSMDYWGQGTQVTVSS	low polyreactivity
QLQLVESGGGLVKAGGSLRLSCAASGRTLPVYAMGWYRQAPGKERELVAAIRWRGGRTYYADSVKGRFTISRDNAKNTVYLQMNSLKPEDTAVYYCAATTNTDRDYWGQGTQVTVSS	high polyreactivity
QLQLVESGGGLVQAGGRLRLSCAASARILSSYAMGSYRQAPGKERELVARISYSGGRTYYADSVKGRFTISRDNAKNTVYLQMNSLKPEDTAVYYCAAVSRVHFSYSYDYWGQGTEVTVSS	high polyreactivity
QLQLVESGGGLVQAGGRLRLSCAASGFIFWSYAMGWYRQAPGKERELVAAISARGGSTYYADSVKGRFTISRDNSKNTVYLQMNSLKPEDTAVYYCAAPRASGYYWGKGTQVTVSS	high polyreactivity
QLQLVESGGGLVQAGGSLRLSCAAAGSTFRLYAMGWYRPAPGKERKLVAAISGRGDRTYYADSVKGRFTISRDNAKNAVYLQMISLKPEDTAVYSCAAKSGFIPYDYWGQGTQVTVSS	high polyreactivity
QLQLVESGGGLVQAGGSLRLSCAASGFIFETYAMGCYIQAPGKERELVAAISRGASTYYADSVKGRFTISRDNAKNTVYLQMNSLKPEYTAVYYCAAKRLSWHRYGYWGQGTQVTVSS	low polyreactivity
QLQLVESGGGLVQAGGSLRLSCAASGFTFDSYAMGWYRQAPGKERELVAAITWDGGSTYYADSVKGRFTISRDNAKNTVYLQMNSLKPEDTAVYYCAADFGTISIDVYSWMDYWGQGTQVTVSS	low polyreactivity
QLQLVESGGGLVQAGGSLRLSCAASGFTFKYNARGWYSQAPGKARELVASISSGSTTYADSVKGRFTISRDNAKNTVYLQINSLKPEDTAVYYCAASVSRGKRFRYGYVFKMDHWGQGTQVTVSS	low polyreactivity
QLQLVESGGGLVQAGGSLRLSCAASGFTIRRYAMGCYRQAPGKERELVAAITWSAGSTYYADSVKGRFTISRDNAKNTVYLQMNSLKPEDTAVYYCAARWTRWGADSGYYWGKGTQVTVSS	high polyreactivity
QLQLVESGGGLVQAGGSLRLSCAASGISFSSYTMGWYRQAHGKERELVAAITWRGGRTYYADSVKGRFKISRDNAKNTVFLQMHSLKTEDTSVFYCAARDVAGYSTRFYYWGQGTQVTVSS	high polyreactivity
QLQLVESGGGLVQAGGSLRLSCAASGLIFTYYAMGWYRQAPGKERELVAAISGRGGSTYYADSVKGRFTISRDSAMKTVYLQMNSLNPEDTAVYYCAAVRWAGYVSDYGYWGQGTQVTVSS	high polyreactivity
QLQLVESGGGLVQAGGSLRLSCAASGLTFYHYAMGWYRQAPGKERELVAAISTSGGSTYYADSVKGRFTVSRDNAKNTVYLQMNSLKPEDTAVYYCATERTYRYDFWGQGTQVTVSS	high polyreactivity
QLQLVESGGGLVQAGGSLRLSCAASGLTSPGNAMGWYRQAPGKEMELVAAISSGGNTYYADSVKGRFTISRDNAKNTVYLQMNSLKPEDTAVYYCNAGGGTNYGSGYWFGYYYWGQGSQVTVSS	low polyreactivity
QLQLVESGGGLVQAGGSLRLSCAASGNTFLLNAMGWYRQAPGKERELVAGIRWGAGRSYYADSVKGRFTISRDNAMNTVYVQMNSLKAEDTAVYSGAADPWSGSDYWGQGTQVTVSS	low polyreactivity

Sequence	polyreactivity (PSR sort gate)
QLQLVESGGGLVQAGGSLRLSCAASGNTFYQYAMGWYRQAPGKERELVAGIRYNGGSTYYADSVKGRFTISRDNAKNTVDLQMNSLKPEDTAVYYCATKGYTGYAYRYGYWGQGTQVTVSS	high polyreactivity
QLQLVESGGGLVQAGGSLRLSCAASGRIFSPYAMGWYSQAPGTASELVARISWRGSRTYFADSVKRRFTISRDNAKNTVYLQMNSLKPEDTAVYYCNAVVYRKPLRRDYWGQGTQVTVSS	high polyreactivity
QLQLVESGGGLVQAGGSLRLSCAASGRIFSRYAMGWYRQATGKERELVAAINKSGGSTYYADSVKGRFTFSRDNAKNTVYLQMNSLKPEDTAVYYCNAVYYWYKGDYWGQGTLVTVSS	high polyreactivity
QLQLVESGGGLVQAGGSLRLSCAASGRIFVKYAMGWYRQAPGKERELVAAISNGASTNYADSVKGRFTISRDNAKNTVYLQMNSLKPEDTAVYYCAASFSRYYRKRYDYWGQGTQVTVSS	high polyreactivity
QLQLVESGGGLVQAGGSLRLSCAASGRTFRYNAMGWYRQAPGKERELVASISWRGGSTYYADSVKGRFTISRDNAKNTVYLQMNSLKPEDTAVYYCVADAAHSEYDYWGQGTQVTVSS	high polyreactivity
QLQLVESGGGLVQAGGSLRLSCAASGRTFYQYAMGWYRKAPGKERELVAAITTSGGSTYYADSVKGRFTISRDNAKNTVYLQMNSLKPEYTAVYYCAAPYTGYRERGSYKSDYWGQGTQVTVSS	low polyreactivity
QLQLVESGGGLVQAGGSLRLSCAASGRTLQWSTMGGYRQAPGKERELVAVISKSGGRTYYADSVKGRFTISRDNAKNTVYLQMNSLKPEDTAVYYCNTPHRSSSVRSYGYWGQGTQVTVSS	high polyreactivity
QLQLVESGGGLVQAGGSLRLSCAASGSIFCQNNMGWYRQAPGKERELVDTITSAGSTYYADSVKGRFTISRANAQNTVYLQMNSLKPEYTAVFYCAAELYRYGFYVPIYPYSYDYWGQGTQVTVSS	low polyreactivity
QLQLVESGGGLVQAGGSLRLSCAASGSIFRFNAMGWYRQAPGKERELVAAISGDSGSTYYADSVKGRFTISRDTAKNTVYFQMNCLKPEDTAVYYCNARHGKIIFYLERYDYWGHGTQVTVSS	low polyreactivity
QLQLVESGGGLVQAGGSLRLSCAASGSIFSRNAMGWYRQAPAKERELVAGISTGGSTNYADSVKGRFTISRDNAKNTVYLLMNSLKTEVTAVYYCAAPLAYEGDYWGQGTQVTVSS	low polyreactivity
QLQLVESGGGLVQAGGSLRLSCAASGSIFYKYAMGWYRQAPGKERELVAAITWSGGRTYYADSVKGRFTISRDNAKNTVYLQMNSLIPEDTAVYYCAAVLRRYPGWVSDYNYWGQGTQVTVSS	high polyreactivity
QLQLVESGGGLVQAGGSLRLSCAASGSIIAAYAMGWYRQAPVKERELVAVITRSGGSTYYADSVKGRFTISRDNAKNTVYLQMNSLKPEDTAVYYCAAVGTRKMYYWGQGTQVTVSS	high polyreactivity
QLQLVESGGGLVQAGGSLRLSCAASGSTFAPYAMGWYRQAPGKERELVADISGGSTNYADSVKGRFTISRDNAKNTVYLQMNSLKPEDTAVYYCATEDHVETVRRLYGYWGLGTQVTVSS	low polyreactivity
QLQLVESGGGLVQAGGSLRLSCAASGSTFGFYAMGWYRQAPGKARELVAAISSSGSTYYADSVKGRFTISRDNAKITVYLQMNSLKPEDTAVYYCAAQPGYYDYDYWGQGTQVTVSS	low polyreactivity
QLQLVESGGGLVQAGGSLRLSCAASGSTFPTNAMGWYRQAPGKEMELVATITTGGSTYYADSVKGRFTISRDNAKNTVYLQMNCLKPEDTAVYYCNAEYVYLIFSVYLYDYDYWGQGTQVTVSS	low polyreactivity
QLQLVESGGGLVQAGGSLRLSCAASGSTFRFNTMGWYRQAPGKERGLVACIAAGTTTNYADSVKGRFTISRDNAKNTVYLQMNSLKPEDAAVYYCAALNAFNTGHWYWGQGTQVTVSS	low polyreactivity
QLQLVESGGGLVQAGGSLRLSCAASGSTFTFNAMGWYRQAPGKERELVATISRGGSTSYADSVKGRFTISRDNAKNTVYLQMNSLNPEDTAVYYCAAVLYPSIYGFAGGKTDYDYWGQGTQVTVSS	low polyreactivity
QLQLVESGGGLVQAGGSLRLSCAASGSTFWSNTMGWYRQAPGKERELVATITDSGGITYYADSVKGRFTISRDNAKNTVYLQMNSLKPEDTAVYYCNVRKTWYGYSVTGRYDYWGQGTQVTVSS	low polyreactivity
QLQLVESGGGLVQAGGSLRLSCAASGSTFYAYAMGWNRPAPGKERELVAAISRGGNTYYADSVQGRFTISRDNAKNTVYLQMNSRKPEDTAVYYCAARYARGRSPLQYGYWGQGTQVTVSS	high polyreactivity
QLQLVESGGGLVQAGGSLRLSCAASGVIFRAYAMGSSRQAPGQERELVAAISGRGGSTYYADSVKGRFTISRDNAKNTVYLQMNSLKPEDTAVYYCNVPLIHPGAPYEYWGQGTQVTVSS	high polyreactivity
QLQLVESGGGLVQAGGSLRLSCAASRRIFSPNAMGWYRQAPGKESELVAAIRWNGGRTYYADSVKGRFTISRDTAKNTVYLQMNSLKPEDTAVYYCAATYFGPDYVRYDDWGQGTQVTVSS	high polyreactivity
